Data as given in doi:10.1101/2023.06.26.546597 (bioRxiv, 2023).

Molecular target: the molecule itself
Experiment: crystal structure

B1: YisK with C-terminal histidine tag (enzyme, B. subtilis 168, UniProt O06724 1-301, looked up)
chain: MKFATGELYNRMFVGLIIDDEKIMDLQKAEKKLFELETIPGSLIECIAEGDKFVAHARQLAEWAKKPNDELGSFMYSLSEVKLHAPIPKPSKNIICIGKNYRDHAIEMGSEADIPEHPMVFTKSPVTVTGHGDIVKSHEEVTSQLDYEGELAVVIGKSGTRISKEDAYDHVFGYTIVNDITARDLQKRHKQFFIGKSLDTTCPMGPVLVHKSSIQEPERLKVETRVNGELRQSGSASDMIFSIPELIETLSKGMTLEAGDIIATGTPSGVGKGFTPPKFLRSGDKIDITIDPIGTLSNQIG
binding result: binds
